Experimental data: article PMC2692298 (Science signaling, 2008)

Molecular target: stromal cell derived factor-1 (SDF-1, also known as CXCL12), wild type (UniProt P48061 22-93)

Kd: 200 ± 200 nM
fold tighter binding than the unsulfated peptide p38: ~20 fold
Binder: GSMEGISIYTSDNYTEEMGSGDYDSMKEPAFREENANFNK (sulfotyrosine at positions 7, 12 and 21) [CXCR4 N-terminal peptide p38-sY3 (sulfotyrosine at positions 7, 12 and 21)]
